Source: publication PMC9822992, “Conformational plasticity of NaK2K and TREK2 potassium channel selectivity filters” (Nature Communications, 2023)

Assays:
[1] = target: cysteine-less TREK2 S105C (Gly67 to Glu340); test: SEC; Superdex-200 10/300, 20 mM Tris, 150 mM KCl, 2 mM DDM, pH 8, 4 °C; oligomer fractions of labelled TREK2 collected
[2] = target: the molecule itself; test: SEC; Superdex-200 10/300, 20 mM Hepes, 150 mM KCl, 5 mM DM, pH 7.5, 4 °C; tetrameric fractions pooled (again after fluorophore labelling)

Molecule	stoichiometry N [2]	binding result [2]	other results
cysteine-less TREK2 S105C (Gly67 to Glu340)			stoichiometry N [1]: 2
monomeric NaK Δ19 T73C (with F92A) (other, NaK channel from Bacillus cereus, Δ19 construct, monomeric; In the cross-linking experiment T73C was reacted with bis-maleimide PEG (Bis-Mal-dPEG3, 3 nm, or Bis-Mal-dPEG11, 6 nm); also called NaK T73C; not shown: His8, C-terminal, kept) KDKEFQVLFVLTILTLISGTIFYSTVEGLRPIDALYFSVVTLTTVGDGNFSPQCDFGKIFTILYIFIGIGLVAGFIHKLAVNVQLPSILSNRKKE	4		
monomeric NaK2K Δ19 T73C (with F92A) (other, NaK channel from Bacillus cereus, Δ19 construct, NaK2K mutant (TVGDGN changed to TVGYGD), monomeric; positions 63-68 are worked out from the printed Asn68; Channels 'formed as tetramers of monomeric, not tandem dimeric, constructs'; In the cross-linking experiment T73C was reacted with bis-maleimide PEG (3 nm or 6 nm); also called NaK2K T73C; not shown: His8, C-terminal, kept) KDKEFQVLFVLTILTLISGTIFYSTVEGLRPIDALYFSVVTLTTVGYGDFSPQCDFGKIFTILYIFIGIGLVAGFIHKLAVNVQLPSILSNRKKE	4		
tandem dimeric NaK Δ19 T73C (other, Alexa Fluor 555 or Alexa Fluor 647 c2 maleimide on T73C, NaK (Na+- and K+-conducting) channel from Bacillus cereus, Δ19 construct, first subunit (S1) of the tandem, carries T73C; linker between the two copies; NaK channel from Bacillus cereus, Δ19 construct, second subunit of the tandem, without cysteine; pET28a; Two tandem dimers form the tetrameric channel; whether a His8 also follows the first copy inside the tandem is not clear; also called NaK …) KDKEFQVLFVLTILTLISGTIFYSTVEGLRPIDALYFSVVTLTTVGDGNFSPQCDFGKIFTILYIFIGIGLVFGFIHKLAVNVQLPSILSNRKKEGGGSGGGSKDKEFQVLFVLTILTLISGTIFYSTVEGLRPIDALYFSVVTLTTVGDGNFSPQTDFGKIFTILYIFIGIGLVFGFIHKLAVNVQLPSILSNRKKE		binds	
tandem dimeric NaK2K Δ19 T73C (other, Alexa Fluor 555 or Alexa Fluor 647 c2 maleimide on T73C, NaK channel from Bacillus cereus, Δ19 construct, NaK2K mutant (selectivity filter TVGDGN changed to TVGYGD), first subunit (S1) of the tandem, carries T73C; positions 63-68 are worked out from the printed Asn68; linker between the two copies; NaK channel from Bacillus cereus, Δ19 construct, NaK2K mutant (TVGDGN changed to TVGYGD), second subunit of the tandem, without cysteine; pET28a; Two tandem …) KDKEFQVLFVLTILTLISGTIFYSTVEGLRPIDALYFSVVTLTTVGYGDFSPQCDFGKIFTILYIFIGIGLVFGFIHKLAVNVQLPSILSNRKKEGGGSGGGSKDKEFQVLFVLTILTLISGTIFYSTVEGLRPIDALYFSVVTLTTVGYGDFSPQTDFGKIFTILYIFIGIGLVFGFIHKLAVNVQLPSILSNRKKE		binds	
